The values below come from publication PMC6735921.

Data set [1] addresses T1, VEGF165 (VEGF-A isoform 165) (UniProt P15692-4 27-191). The experiment in a line: EMSA. For orientation: A gel shift assay detects complexes by their altered migration in electrophoresis.
For data set [2], the target named is T1, VEGF165 (VEGF-A isoform 165). The experiment in a line: EMSA. The source holds these as a separate data set.

Read-outs that look alike come from different tables or passages of the source.

As to TGTGGGGGTGGACGGGCCGGGTAGA (structured_DNA) [V7t1 dimer (purified SE-HPLC peak 1)], the binding result in data set [1] was “binds”. Take TGTGGGGGTGGACGGGCCGGGTAGA (structured_DNA) [V7t1 not-annealed (about 73% dimer, 26% monomer)]: the binding result in data set [2] is on record as “binds”.
